B1: LOXL2 (parent)
chain: YVEVKEGKTWKQICDKHWTAKNSR
B2: COX4I1 (parent)
chain: FDKEWVAKQTKRMLDMKVNPIQGL

Variants of: B1
Assay: protein stability index of a GFP-peptide fusion (GPS, HEK-293T) (PSI 1-6); higher = more stable
Details: c terminus: a fixed tail appended
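Further: lentivirally expressed fusions sorted by FACS into six bins by GFP to DsRed ratio, PSI derived from sequencing read proportions per bin multiplied by bin number.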

Protein stability index: each site, then its substitutions
H17: Q 1.53, M 2.41, G 3.27, I 2.14, R 3.35, N 2.89, K 2.98, T 1.97, V 3.44, P 3.06, C 1.56, A 3, D 1.84, E 2.3, F 3.2, L 2.81, Y 3.47, S 1.82
T19: F 2.16, K 1.87, V 2.26, C 2.75, D 2.34, E 2.15, H 1.78, P 2.11, N 2.95, S 1.72, M 1.99, W 2.64, A 1.45, G 2.56, L 1.39, Q 3.17, R 1.77, Y 2.29
C14: F 2.07, N 1.99, P 1.98, T 2.52, D 2.4, Y 1.93, Q 1.74, A 1.77, H 4.51, I 2.16, M 2.98, W 4.18, K 1.45, G 2.31, L 1.8, E 2.5, R 2.33, S 1.75, V 1.93
K21: G 2.14, Y 2.14, D 2.34, T 2.5, E 3.16, M 2.13, L 1.95, I 1.68, R 3.06, F 3.06, S 1.99, H 1.85, N 2.15, A 2.3, P 2.67, V 2.03, W 1.96
W18: V 2.66, I 1.96, E 2.52, R 1.5, Q 1.84, H 3.04, L 2.19, A 2.76, P 1.94, C 2.54, M 2.46, N 2.58, K 2.11, S 2.05, D 3.01, G 2, Y 1.56, F 2.54, T 1.94
D15: A 2.96, R 1.8, W 2.6, P 1.76, F 2.12, N 2.27, V 2.49, L 2.62, Y 2.13, Q 2.56, H 2.49, E 3.34, I 1.83, G 2.64, S 2.56, M 2.05, K 2.94, C 1.72, T 2.26
K16: W 2.44, F 2.02, H 2.83, Y 2.82, G 3.14, I 2.32, P 1.95, D 3.38, R 3.43, A 2.08, E 1.19, V 2.46, M 2.3, Q 2.24, S 3.34, L 2.42, N 1.93
Q12: M 2.64, R 3.12, D 2.02, N 2.61, I 3.16, W 2.42, V 1.48, E 1.58, L 2.39, F 2.46, Y 2.07, G 2.63, T 2.43, K 2.63, P 2.31, H 3.06
N22: R 1.8, Y 2.23, T 2.54, P 1.89, F 2.29, S 1.92, G 2.13, A 3.24, Q 1.82, K 3.05, D 2.42, H 2.99, W 3.39, L 1.78, C 1.97, M 2.35, V 2.79, E 2.25, I 2.8
I13: N 1.37, S 2.38, W 2.25, K 2.81, M 2.19, L 1.4, Q 2.5, T 2.68, H 2.42, A 2.73, D 3.54, P 3.38, Y 1.6, V 2.44, E 2.33, R 2.59, C 2.6
R24: D 1.91, S 3.24, H 3.07, E 2.33, I 1.74, M 2.09, T 3.49, A 2.42, V 2.2, L 2.46, C 2.72, N 2.48, P 1.69, Y 3.45, K 2.76, G 1.53, Q 2.33, W 1.79, F 2.94
S23: P 1.94, K 2.88, G 1.83, T 2.33, C 2.73, I 2.82, M 1.97, V 2.15, E 2.17, L 2.42, H 2, F 1.19, R 2.09, D 2.41, A 2.97, N 1.71, Y 2.64
A20: Y 2.27, D 2.59, C 2.46, S 2.73, L 2.16, K 2.25, Q 2.54, F 1.9, M 2.35, R 2.71, P 1.67, V 2.11, G 1.75, T 2.03, H 2.07, E 1.98, I 1.99

Variants of: B2
Assay: as above
Details: c terminus: a fixed tail appended

Protein stability index, by site and new letter:
E4: R 1.84, Q 1.53, P 1.66, K 1.82, H 2.35, T 2.34, C 1.62, F 1.63, W 1.66, M 1.26, D 1.9, G 1.43, S 1.43, V 2.42, I 1.47, N 1.69, Y 1.89, L 1.88, A 2.41
F1: G 2.92, M 3.23, P 3.44, V 2.77, Y 1.71, H 3.13, T 3.71, C 2.62, W 2.17, I 3.11, D 4.38, N 3.79, Q 3.31, K 3.57, L 3.57, E 3.19, R 2.42, A 3.42, S 3.34
K3: H 1.52, N 2.06, F 1.87, G 1.91, P 1.75, T 2.1, Y 2.13, M 1.64, A 2.17, L 2.06, R 1.66, Q 2.85, W 1.29, D 2.57, V 1.68, E 2.83, S 2.19, C 2.12
W5: P 3.63, F 2.8, K 3.54, I 3.44, V 4.17, Q 3.85, A 3.96, R 3.98, L 3, D 4.22, C 3.78, E 3.6, M 3.52, N 3.86, S 3.61, Y 3.22, T 2.87, G 3.92, H 2.84
V6: K 2.28, N 1.79, E 3.33, F 1.55, A 3.39, M 1.93, L 2.37, H 2.06, C 1.53, I 1.35, G 2.31, D 2.78
D2: P 2.51, W 1.52, C 4.02, Y 1.76, I 2.45, A 2.65, T 1.35, R 1.27, L 1.09, E 1.89, K 1.62, M 1.93, N 2.57, V 1.26, G 1.55
